Reference: patent publication US20230151091A1 (NEW YORK UNIVERSITY, published 2023)

B1: 14D10 (antibody, V domains shown)
VH: ELQLVESGGGLVQPGGSLRLSCAASGFTFDDYGMSWVRQAPGKGLEWVSAIPWNGGSTYYKESVKGRFTISRDNAKKTLYLQMNSLKSEDTAVYYCAKRSGRIAFGALDAWGQGTLVTVSS
VL: QAVVTQEPSLSVSPGGTVTLTCGLSSGSVTSSNYPDWYQQTPGQAPRTLIYTTNSRHSGVPSRFSGSISGNKAALTITGAQPEDEADYYCALYMGGGSNVYVFG
notes: human IgG1 with the LALA mutations (L234A, L235A); produced in HEK293 cells
B2: 17H10 (antibody, V domains shown)
VH: QVQVQESGPGLVKPSQTLSLTCTVSGGSITARYYSWSWIRQPPGKGLEWMGVIAYDGSTYYSPSLKSRTSISRDTSKNQFSLHLSSVTPDDTAVYYCARGSSRVAAAFDSWGQGTQVTVSS
VL: SYELTQSPSVSVALRQTAKITCGGNRIGGKSVQWYQQKPGQAPMLVIYADSRRPSGIPERFTGSNSGNTATLTITGAQAEDEADYYCHVWGSTASADFGGGTHLTVL
notes: as for B1

Biological target: T1, human MuSK (human, UniProt O15146 24-495)
T1 construct: Recombinant protein coated on ELISA plates (R&D Systems cat. 10189-MK) or on the Biacore chip; also called human muscle-specific tyrosine protein kinase; full length human MuSK
T1 sequence: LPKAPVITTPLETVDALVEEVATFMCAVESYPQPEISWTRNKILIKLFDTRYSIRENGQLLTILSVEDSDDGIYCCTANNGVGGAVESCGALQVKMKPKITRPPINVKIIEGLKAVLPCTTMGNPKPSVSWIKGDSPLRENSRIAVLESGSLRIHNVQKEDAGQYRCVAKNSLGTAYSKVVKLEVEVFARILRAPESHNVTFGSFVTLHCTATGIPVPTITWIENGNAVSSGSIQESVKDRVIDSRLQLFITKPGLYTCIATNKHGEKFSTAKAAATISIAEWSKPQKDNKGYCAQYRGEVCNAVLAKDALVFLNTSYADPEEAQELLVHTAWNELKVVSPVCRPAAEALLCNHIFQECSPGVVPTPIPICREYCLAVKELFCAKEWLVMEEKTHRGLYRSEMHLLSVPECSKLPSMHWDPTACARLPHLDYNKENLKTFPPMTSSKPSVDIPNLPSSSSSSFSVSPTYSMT
Assay: ELISA, plate coated with human MuSK at 0.2 µg/ml, dilution series of mAb, goat anti human Fc-HRP and TMB, OD 620 nm (8 min)
Method: An ELISA plate was coated with human MuSK (R&D Systems, cat. 10189-MK) or mouse MuSK (in house produced in HEK293 cells) at 0.2 μg/ml. After washing and blocking the plate, a dilution series of the anti-MuSK antibodies was applied and allowed to bind for 2 hours at room temperature. […] OD at 620 nm was measured with a 96 well ELISA plate reader.

Binder	EC50 (read off the curve)
B1	~0.04 µg/mL
B2	~0.02 µg/mL
